Laboratory results: the supplement of paper PMC9112550, “Optimization of the antimicrobial peptide Bac7 by deep mutational scanning” (BMC Biology, 2022)

tested on: Escherichia coli TOP10; test: shrunken log2 fold change of peptide-encoding DNA abundance (4.5 h post-induction vs induction); higher = less antimicrobial activity (less host growth inhibition); conditions: time post-induction: 4.5 h; library: site-saturation at positions 5, 18, 19, 20
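Further: peptides expressed intracellularly from a pBAD plasmid library in pooled LB shake-flask culture, induced with 0.3% L-arabinose, DNA abundance read by NGS, three biological replicates, DESeq2 with apeglm shrinkage.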

| Sequence | shrunken log2 fold change |
| --- | --- |
| RRIRLRPPRLPRPRPRPDISPRP | 0.0207 |
| RRIRLRPPRLPRPRPRPDKDPRP | 0.0388 |
| RRIRLRPPRLPRPRPRPDMYPRP | -0.0404 |
| RRIRLRPPRLPRPRPRPDNQPRP | -0.889 |
| RRIRLRPPRLPRPRPRPDPIPRP | 0.0451 |
| RRIRLRPPRLPRPRPRPDRGPRP | 0.0151 |
| RRIRLRPPRLPRPRPRPDRNPRP | 0.0573 |
| RRIRLRPPRLPRPRPRPDSHPRP | -0.46 |
| RRIRLRPPRLPRPRPRPDSLPRP | -0.335 |
| RRIRLRPPRLPRPRPRPDSMPRP | -0.166 |
| RRIRLRPPRLPRPRPRPDTCPRP | -0.149 |
| RRIRLRPPRLPRPRPRPECHPRP | 0.0679 |
| RRIRLRPPRLPRPRPRPEDGPRP | -0.0468 |
| RRIRLRPPRLPRPRPRPEDIPRP | -0.539 |
| RRIRLRPPRLPRPRPRPEDQPRP | 0.22 |
| RRIRLRPPRLPRPRPRPEFGPRP | 0.07 |
| RRIRLRPPRLPRPRPRPEHEPRP | 0.13 |
| RRIRLRPPRLPRPRPRPEIHPRP | -0.269 |
| RRIRLRPPRLPRPRPRPEIMPRP | -0.00809 |
| RRIRLRPPRLPRPRPRPEKFPRP | -0.175 |
| RRIRLRPPRLPRPRPRPEKQPRP | 0.0884 |
| RRIRLRPPRLPRPRPRPELEPRP | 0.23 |
| RRIRLRPPRLPRPRPRPELIPRP | -0.0413 |
| RRIRLRPPRLPRPRPRPEMFPRP | -0.00904 |
| RRIRLRPPRLPRPRPRPEMVPRP | 0.201 |

| Sequence | shrunken log2 fold change |
| --- | --- |
| RRIRLRPPRLPRPRPRPEPSPRP | 0.787 |
| RRIRLRPPRLPRPRPRPERCPRP | 0.00413 |
| RRIRLRPPRLPRPRPRPERIPRP | 0.0484 |
| RRIRLRPPRLPRPRPRPESQPRP | -0.000253 |
| RRIRLRPPRLPRPRPRPEWLPRP | 0.315 |
| RRIRLRPPRLPRPRPRPEYNPRP | -0.15 |
| RRIRLRPPRLPRPRPRPFADPRP | 0.0979 |
| RRIRLRPPRLPRPRPRPFAGPRP | 0.024 |
| RRIRLRPPRLPRPRPRPFAYPRP | -0.163 |
| RRIRLRPPRLPRPRPRPFCHPRP | 0.0449 |
| RRIRLRPPRLPRPRPRPFCLPRP | -0.485 |
| RRIRLRPPRLPRPRPRPFDEPRP | 0.0466 |
| RRIRLRPPRLPRPRPRPFDNPRP | -0.0289 |
| RRIRLRPPRLPRPRPRPFEQPRP | 0.305 |
| RRIRLRPPRLPRPRPRPFFRPRP | -0.0862 |
| RRIRLRPPRLPRPRPRPFIAPRP | -0.496 |
| RRIRLRPPRLPRPRPRPFLIPRP | -0.666 |
| RRIRLRPPRLPRPRPRPFLWPRP | -0.314 |
| RRIRLRPPRLPRPRPRPFMCPRP | -0.0925 |
| RRIRLRPPRLPRPRPRPFNSPRP | -0.431 |
| RRIRLRPPRLPRPRPRPFSIPRP | -0.158 |
| RRIRLRPPRLPRPRPRPFTRPRP | -0.0482 |
| RRIRLRPPRLPRPRPRPFTYPRP | -0.0906 |
| RRIRLRPPRLPRPRPRPFYAPRP | -0.279 |
| RRIRLRPPRLPRPRPRPFYHPRP | -0.821 |

| Sequence | shrunken log2 fold change |
| --- | --- |
| RRIRLRPPRLPRPRPRPGACPRP | 0.264 |
| RRIRLRPPRLPRPRPRPGAGPRP | 0.448 |
| RRIRLRPPRLPRPRPRPGAHPRP | 0.057 |
| RRIRLRPPRLPRPRPRPGAPPRP | 0.672 |
| RRIRLRPPRLPRPRPRPGCQPRP | -0.00705 |
| RRIRLRPPRLPRPRPRPGFFPRP | 0.0646 |
| RRIRLRPPRLPRPRPRPGFWPRP | 0.406 |
| RRIRLRPPRLPRPRPRPGGTPRP | -0.0425 |
| RRIRLRPPRLPRPRPRPGILPRP | -0.105 |
| RRIRLRPPRLPRPRPRPGKKPRP | 0.0971 |
| RRIRLRPPRLPRPRPRPGKNPRP | -0.304 |
| RRIRLRPPRLPRPRPRPGLDPRP | -0.0233 |
| RRIRLRPPRLPRPRPRPGLKPRP | 0.12 |
| RRIRLRPPRLPRPRPRPGLVPRP | 0.0948 |
| RRIRLRPPRLPRPRPRPGMHPRP | 0.299 |
| RRIRLRPPRLPRPRPRPGMTPRP | 0.00528 |
| RRIRLRPPRLPRPRPRPGMWPRP | 0.164 |
| RRIRLRPPRLPRPRPRPGPFPRP | 0.137 |
| RRIRLRPPRLPRPRPRPGPGPRP | 0.279 |
| RRIRLRPPRLPRPRPRPGQMPRP | 0.482 |
| RRIRLRPPRLPRPRPRPGQPPRP | 0.187 |
| RRIRLRPPRLPRPRPRPGRLPRP | 0.0389 |
| RRIRLRPPRLPRPRPRPGSTPRP | -0.381 |
| RRIRLRPPRLPRPRPRPGTAPRP | 0.362 |
| RRIRLRPPRLPRPRPRPGTRPRP | 0.309 |

| Sequence | shrunken log2 fold change |
| --- | --- |
| RRIRLRPPRLPRPRPRPGWVPRP | 0.117 |
| RRIRLRPPRLPRPRPRPGYGPRP | 0.0339 |
| RRIRLRPPRLPRPRPRPGYNPRP | -0.774 |
| RRIRLRPPRLPRPRPRPHAVPRP | 0.0578 |
| RRIRLRPPRLPRPRPRPHAWPRP | 0.62 |
| RRIRLRPPRLPRPRPRPHCVPRP | -0.068 |
| RRIRLRPPRLPRPRPRPHDHPRP | 0.0691 |
| RRIRLRPPRLPRPRPRPHDQPRP | 0.276 |
| RRIRLRPPRLPRPRPRPHDRPRP | -0.132 |
| RRIRLRPPRLPRPRPRPHEKPRP | 0.0162 |
| RRIRLRPPRLPRPRPRPHFKPRP | -0.367 |
| RRIRLRPPRLPRPRPRPHFTPRP | -0.355 |
| RRIRLRPPRLPRPRPRPHGIPRP | -0.017 |
| RRIRLRPPRLPRPRPRPHLAPRP | 0.053 |
| RRIRLRPPRLPRPRPRPHPCPRP | -0.0967 |
| RRIRLRPPRLPRPRPRPHPQPRP | 0.0301 |
| RRIRLRPPRLPRPRPRPHPYPRP | -0.379 |
| RRIRLRPPRLPRPRPRPHQSPRP | -0.0648 |
| RRIRLRPPRLPRPRPRPHRVPRP | 0.0399 |
| RRIRLRPPRLPRPRPRPHTKPRP | -0.422 |
| RRIRLRPPRLPRPRPRPHTMPRP | -1.13 |
| RRIRLRPPRLPRPRPRPHVDPRP | 0.0142 |
| RRIRLRPPRLPRPRPRPHVFPRP | -0.0592 |
| RRIRLRPPRLPRPRPRPHWTPRP | -0.015 |
| RRIRLRPPRLPRPRPRPHYHPRP | -1.26 |

| Sequence | shrunken log2 fold change |
| --- | --- |
| RRIRLRPPRLPRPRPRPHYLPRP | -0.278 |
| RRIRLRPPRLPRPRPRPIAFPRP | -0.14 |
| RRIRLRPPRLPRPRPRPIEAPRP | -0.00911 |
| RRIRLRPPRLPRPRPRPIELPRP | 0.00435 |
| RRIRLRPPRLPRPRPRPIENPRP | 0.0407 |
| RRIRLRPPRLPRPRPRPIGLPRP | 0.00285 |
| RRIRLRPPRLPRPRPRPIGTPRP | -0.0773 |
| RRIRLRPPRLPRPRPRPIGWPRP | 0.156 |
| RRIRLRPPRLPRPRPRPIHVPRP | -0.0124 |
| RRIRLRPPRLPRPRPRPIICPRP | 0.0147 |
| RRIRLRPPRLPRPRPRPIIDPRP | -0.256 |
| RRIRLRPPRLPRPRPRPIITPRP | -0.613 |
| RRIRLRPPRLPRPRPRPIKGPRP | -0.106 |
| RRIRLRPPRLPRPRPRPIMKPRP | -0.489 |
| RRIRLRPPRLPRPRPRPIMTPRP | -0.397 |
| RRIRLRPPRLPRPRPRPINCPRP | -0.0463 |
| RRIRLRPPRLPRPRPRPIQHPRP | -0.213 |
| RRIRLRPPRLPRPRPRPIQPPRP | 0.0112 |
| RRIRLRPPRLPRPRPRPISEPRP | 0.00295 |
| RRIRLRPPRLPRPRPRPISGPRP | -0.462 |
| RRIRLRPPRLPRPRPRPISSPRP | 0.106 |
| RRIRLRPPRLPRPRPRPITCPRP | -0.513 |
| RRIRLRPPRLPRPRPRPITPPRP | 0.163 |
| RRIRLRPPRLPRPRPRPIVAPRP | -0.0323 |
| RRIRLRPPRLPRPRPRPIVNPRP | -0.803 |

| Sequence | shrunken log2 fold change |
| --- | --- |
| RRIRLRPPRLPRPRPRPIWTPRP | 0.0256 |
| RRIRLRPPRLPRPRPRPIYHPRP | -0.6 |
| RRIRLRPPRLPRPRPRPIYPPRP | -0.134 |
| RRIRLRPPRLPRPRPRPKAHPRP | 0.125 |
| RRIRLRPPRLPRPRPRPKCFPRP | -0.00607 |
| RRIRLRPPRLPRPRPRPKDKPRP | 0.112 |
| RRIRLRPPRLPRPRPRPKDTPRP | 0.0949 |
| RRIRLRPPRLPRPRPRPKEHPRP | 0.227 |
| RRIRLRPPRLPRPRPRPKFRPRP | -0.0412 |
| RRIRLRPPRLPRPRPRPKGAPRP | 0.379 |
| RRIRLRPPRLPRPRPRPKGLPRP | -0.0393 |
| RRIRLRPPRLPRPRPRPKHCPRP | -0.207 |
| RRIRLRPPRLPRPRPRPKHTPRP | 0.228 |
| RRIRLRPPRLPRPRPRPKHVPRP | -0.0799 |
| RRIRLRPPRLPRPRPRPKKRPRP | 0.277 |
| RRIRLRPPRLPRPRPRPKLAPRP | 0.098 |
| RRIRLRPPRLPRPRPRPKLCPRP | 0.115 |
| RRIRLRPPRLPRPRPRPKLSPRP | 0.0605 |
| RRIRLRPPRLPRPRPRPKNIPRP | -0.499 |
| RRIRLRPPRLPRPRPRPKPEPRP | 0.249 |
| RRIRLRPPRLPRPRPRPKQVPRP | -0.0171 |
| RRIRLRPPRLPRPRPRPKRRPRP | -0.259 |
| RRIRLRPPRLPRPRPRPKSWPRP | 0.176 |
| RRIRLRPPRLPRPRPRPKVLPRP | -0.128 |
| RRIRLRPPRLPRPRPRPKWRPRP | 0.39 |
